Measured values reported in paper PMC4532856 (Nature Communications, 2015).
Blank lines part the entries; values can stand above or below the molecule they belong to.

Columns and labels:
[1] = biological target: T1, full-length glucagon receptor purified from Sf9 membranes (Homo sapiens, UniProt P47871); test: negative-stain EM (random conical tilt 3D maps); purified GCGR in lauryl maltose neopentyl glycol mixed with mAb23 Fab, complex isolated by size exclusion chromatography, stained with 2% uranyl formate; settings: both partners purified
T1 construct: glucagon receptor (GCGR), full-length construct; the small molecule NNC0640 was present throughout; also called full-length GCGR; GCGR; source: Sf9 membranes, solubilised in DDM/CHS, purified (talon resin), exchanged into lauryl maltose neopentyl glycol

[2] = biological target: T2, full-length glucagon receptor (GCGR), purified from Sf9 membranes for EM (Homo sapiens, UniProt P47871); test: negative-stain electron microscopy map (random conical tilt); mAb23 Fab mixed with detergent-purified GCGR (lauryl maltose neopentyl glycol, NNC0640), complex isolated by size exclusion chromatography; 2% uranyl formate stain; about 0.01 uM protein; settings: both partners purified
T2 construct: glucagon receptor (GCGR), human, called the full-length construct; also called full-length GCGR; full-length construct

GCGR = settings: cited from earlier work

T1 sequence (P47871 26-477): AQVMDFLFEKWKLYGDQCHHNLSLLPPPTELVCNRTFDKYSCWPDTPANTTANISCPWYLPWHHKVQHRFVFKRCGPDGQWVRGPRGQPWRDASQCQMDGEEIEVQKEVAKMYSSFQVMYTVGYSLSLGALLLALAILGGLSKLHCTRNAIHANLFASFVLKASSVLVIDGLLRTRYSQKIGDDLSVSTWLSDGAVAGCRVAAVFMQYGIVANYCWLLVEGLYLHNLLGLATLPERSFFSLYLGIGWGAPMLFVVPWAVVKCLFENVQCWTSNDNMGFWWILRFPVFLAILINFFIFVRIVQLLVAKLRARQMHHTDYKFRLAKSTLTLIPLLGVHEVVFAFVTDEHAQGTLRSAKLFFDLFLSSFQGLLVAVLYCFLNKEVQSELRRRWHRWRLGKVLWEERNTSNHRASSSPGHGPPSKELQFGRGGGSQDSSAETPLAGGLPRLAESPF
T2 sequence (P47871 26-477): as above

binding result [1]: binds
B1: antigen-binding fragment (Fab) of the monoclonal antibody mAb23 (Fab, V domains shown)
VH: EVQLVESGGGLVQPGGSLRLSCAASGFNIYYNYIHWVRQAPGKGLEWVAEFSPYSGSTYYADSVKGRFTISADTSKNTAYLQMNSLRAEDTAVYYCARSAAIVDWYDYFKGFDYWGQGTLVTVSS
VL: DIQMTQSPSSLSASVGDRVTITCRASQSVSSAVAWYQQKPGKAPKLLIYSASSLYSGVPSRFSGSRSGTDFTLTISSLQPEDFATYYCQQYGSYLYTFGQGTKVEIK
notes: The alignment numbers light chain 1-215 and heavy chain 216-443 in one run; also called mAb23 Fab; source: kindly provided by Genentech

binding result [2]: binds
B2: antigen-binding fragment (Fab) of the monoclonal antibody mAb23 (Fab, V domains shown)
VH: B1 VH
VL: B1 VL
notes: Related to mAb1, whose Fab is in PDB 4ERS (cited); also called mAb23 Fab; source: kindly provided by Genentech

B3: mAb23: monoclonal antibody that interacts with the ECD of GCGR; Fab kindly provided by Genentech (antibody, V domains shown)
VH: B1 VH
VL: B1 VL
effect on glucagon binding to the receptor (GCGR): preventing glucagon from binding to the receptor
